“Also recorded” adds a separate entry of the source.
What was measured:
rhECE-1 [1] = molecular target: T1, rhECE-1 (Homo sapiens, UniProt P42892); assay: ECE-1 activity, bradykinin-based QFS assay; type: biochemical; conditions: 10 ng/μL, rhECE-1 0.05 ng/μL, 1 h pre-incubation 37 °C, QFS 40 μM; comparisons with K49-P1-20 or enzyme alone
T1 construct: purchased R & D systems
T1 sequence (P42892 1-770): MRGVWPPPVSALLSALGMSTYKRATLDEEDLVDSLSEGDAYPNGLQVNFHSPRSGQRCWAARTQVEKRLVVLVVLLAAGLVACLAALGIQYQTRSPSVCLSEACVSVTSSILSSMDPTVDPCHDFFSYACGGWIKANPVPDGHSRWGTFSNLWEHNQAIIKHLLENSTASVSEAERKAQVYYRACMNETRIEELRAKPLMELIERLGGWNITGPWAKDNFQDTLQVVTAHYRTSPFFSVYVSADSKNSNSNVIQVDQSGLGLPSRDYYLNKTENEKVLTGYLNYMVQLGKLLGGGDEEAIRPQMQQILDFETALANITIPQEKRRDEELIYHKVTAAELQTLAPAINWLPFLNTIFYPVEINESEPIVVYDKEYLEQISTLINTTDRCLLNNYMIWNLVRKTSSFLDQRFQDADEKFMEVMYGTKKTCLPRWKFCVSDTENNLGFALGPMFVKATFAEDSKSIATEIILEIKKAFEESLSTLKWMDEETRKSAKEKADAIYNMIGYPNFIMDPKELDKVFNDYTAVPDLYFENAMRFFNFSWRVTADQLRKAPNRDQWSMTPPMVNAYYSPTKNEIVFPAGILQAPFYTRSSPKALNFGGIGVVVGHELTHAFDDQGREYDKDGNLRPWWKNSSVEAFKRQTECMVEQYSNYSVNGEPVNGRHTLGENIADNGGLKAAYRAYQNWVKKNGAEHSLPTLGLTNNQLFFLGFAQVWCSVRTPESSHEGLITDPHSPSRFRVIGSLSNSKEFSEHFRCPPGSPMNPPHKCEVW
Experimental: Enzyme activities were measured using a previously described bradykinin-based quenched fluorescent substrate (QFS) assay. Briefly, rhECE-1 or NEP (0.05 ng/μL) was incubated with ECE-1 buffer for 1 h at 37 °C. Where indicated, venom, B. asper myotoxin II or relevant synthetic peptide (10 ng/μL) was added to the reaction mixture and pre-incubated (1 h at 37 °C) with rhECE-1 or rhNEP prior to the addition of substrate ((7-methoxycoumarin-4-yl)acetyl-Arg-Pro-Pro-Gly-Phe-Ser-Ala-Phe-Lys(2, 4-dinitrophenyl); 40 μM final). The specificity of ECE-1 and NEP mediated cleavage was confirmed using the inhibitors CGS35066 (500 nM) and thiorphan (10 µM).
Increase in fluorescence over time (excitation and emission wavelengths of 320 and 405 nm respectively) was taken as evidence of enzyme activity. The specific activity for each enzyme was calculated using a standard curve of known 7-methoxycoumarin concentrations. Enzyme alone (rhECE-1, rhNEP, rhACE-2 and rhIDE) was used as a control in all studies examining the effect of K49-P1-20 on enzyme activity.
Non-linear regression analysis in GraphPad Prism software (version 6.04; Michaelis Menton equation) was used to calculate the enzyme kinetic parameters (Vmax and Km). In all enzyme assays the amount of substrate cleaved over 80 min was determined. Where indicated, enzyme activity in the presence of K49-P1-20 was expressed as a % of the respective control. The enzyme kinetic parameters were determined based on the rate of substrate cleavage.

rhECE-1 [2] = molecular target: T1, rhECE-1; assay: Cleavage of endogenous Aβ42 in cerebrospinal fluid by activated ECE-1 (ELISA); type: biochemical; conditions: CGS35066 500 nM, rhECE-1 0.04 ng/μL, K49-P1-20 300 ng/μL, 4 h
Experimental: Aβ42 levels were measured using a commercially available Human Aβ42 ELISA kit (Life technologies), according to the manufacturer’s instructions. rhECE-1 (0.04 ng/μL) alone, rhECE + K49-P1-20 (300 ng/μL) or rhECE + K49-P1-20 + CGS35066 (500 nM) was incubated at 37 °C for 1 hr. Cerebrospinal fluid (diluted 1:10 in assay buffer) from patients with Alzheimer’s disease was added to each reaction mixture. The final volume of cerebrospinal fluid added was kept to 1/10th the final volume of reaction mixture, which was adjusted using ECE-1 buffer. Aliquots of equal volume were taken at 0 and 4 h, snap frozen in dry ice and stored at −80 °C until analysed by ELISA. The amount of Aβ42 remaining after 4 h was expressed as a % of initial.

trypsin = trypsin mediated cleavage of K49-P1-20

Row | Molecule | Stimulation of ECE-1 activity (in words) (rhECE-1 [1]) | other results
1 | B. asper myotoxin II | ECE-1 stimulation | 
2 | K49-P1-34: synthetic peptide corresponding to the N-terminal region of B. asper myotoxin II | mimicked the stimulator effects; also recorded: No significant difference | 
3 | O=C(O)C(Cc1ccc2c(c1)oc1ccccc12)NCP(=O)(O)O (centres unmarked) [CGS35066] |  | Effect on the Aβ42 decrease by ECE-1 + K49-P1-20 in cerebrospinal fluid (rhECE-1 [2]): blocked
4 | SLFELGKMILQETGKNPAKS |  | cleaved bond (trypsin): K7-M8
5 | K49-P9-34: synthetic peptide from the N-terminal region of B. asper myotoxin II | significantly less | 

From article PMC4773759 (Scientific Reports, 2016)
